Where two headings read alike, the source gives them in different places.
T1: human CEACAM5 on cells (human, UniProt P06731 35-685)
T1 chain: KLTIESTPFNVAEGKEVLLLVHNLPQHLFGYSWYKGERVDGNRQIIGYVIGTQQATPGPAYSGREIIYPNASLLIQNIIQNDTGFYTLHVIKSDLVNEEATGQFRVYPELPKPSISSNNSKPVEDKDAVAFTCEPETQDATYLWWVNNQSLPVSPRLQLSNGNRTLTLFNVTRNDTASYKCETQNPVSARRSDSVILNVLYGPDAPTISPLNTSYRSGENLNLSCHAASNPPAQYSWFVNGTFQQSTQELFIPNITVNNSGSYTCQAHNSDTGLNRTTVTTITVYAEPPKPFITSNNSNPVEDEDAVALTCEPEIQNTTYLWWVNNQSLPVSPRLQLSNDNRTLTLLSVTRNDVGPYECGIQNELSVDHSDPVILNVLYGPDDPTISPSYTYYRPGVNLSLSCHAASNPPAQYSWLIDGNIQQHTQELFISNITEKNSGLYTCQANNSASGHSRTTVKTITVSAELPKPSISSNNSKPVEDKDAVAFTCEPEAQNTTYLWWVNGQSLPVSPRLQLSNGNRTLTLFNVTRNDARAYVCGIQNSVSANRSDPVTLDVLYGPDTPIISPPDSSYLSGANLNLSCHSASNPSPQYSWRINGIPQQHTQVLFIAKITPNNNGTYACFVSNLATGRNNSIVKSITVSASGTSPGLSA


What was measured:
human 4-1BB [1] = target: T2, human 4-1BB (human, UniProt Q07011 24-255); test: FACS cell binding
human CEACAM5 on cells [2] = target: T1, human CEACAM5 on cells; test: FACS cell binding; MKN-45 cells
human CEACAM5 on cells [3] = target: T1, human CEACAM5 on cells; test: FACS cell binding; MKN-45 cells
human 4-1BB [4] = target: T2, human 4-1BB; test: FACS cell binding; plot key prints IMMU130-263-1-3
human 4-1BB [5] = target: T2, human 4-1BB; test: FACS cell binding; remark: listed apart in the source

T2 sequence (Q07011 24-255): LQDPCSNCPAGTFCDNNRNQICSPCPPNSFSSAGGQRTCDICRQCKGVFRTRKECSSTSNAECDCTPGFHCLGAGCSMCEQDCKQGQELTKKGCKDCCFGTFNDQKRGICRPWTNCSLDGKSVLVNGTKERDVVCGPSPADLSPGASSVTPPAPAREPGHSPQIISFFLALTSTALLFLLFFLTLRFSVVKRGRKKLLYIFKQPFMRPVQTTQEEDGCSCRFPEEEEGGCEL

| Binder | EC50 (human 4-1BB [1]) | EC50 (human CEACAM5 on cells [2]) | EC50 (human CEACAM5 on cells [3]) | EC50 (human 4-1BB [4]) | EC50 (human 4-1BB [5]) |
| --- | --- | --- | --- | --- | --- |
| IMMU130-263-1-3 (bispecific antibody) heavy (part 1 of 2): EVQLVESGGGVVQPGRSLRLSCSASGFDFTTYWMSWVRQAPGKGLEWIGEIHPDSSTINYAPSLKDRFTISRDNAKNTLFLQMDSLRPEDTGVYFCASLYFGFPWFAYWGQGTPVTVSS heavy (part 2 of 2): GGGGSGGGGSGGGGSGGGGSEVQLLESGGGLVQPGGSLRLSCAASGFTFSSSAMSWARQTPGKGFEWVSGIYSGGSTYYTESVKDRFTISRDNSKNTVYLQMNSLKPEDTAVYYCATWGTLRFGVWAEYDHWGQGTQVTVSS light: DIQLTQSPSSLSASVGDRVTITCKASQDVGTSVAWYQQKPGKAPKLLIYWTSTRHTGVPSRFSGSGSGTDFTFTISSLQPEDIATYYCQQYSLYRSFGQGTKVEIK | 0.58 nM | 5.38 nM | 8.47 nM | 1.23 nM | – |
| Labetuzumab (antibody, V domains shown) VH: EVQLVESGGGVVQPGRSLRLSCSASGFDFTTYWMSWVRQAPGKGLEWIGEIHPDSSTINYAPSLKDRFTISRDNAKNTLFLQMDSLRPEDTGVYFCASLYFGFPWFAYWGQGTPVTVSS VL: DIQLTQSPSSLSASVGDRVTITCKASQDVGTSVAWYQQKPGKAPKLLIYWTSTRHTGVPSRFSGSGSGTDFTFTISSLQPEDIATYYCQQYSLYRSFGQGTKVEIK | – | 3.48 nM | 5.31 nM | – | – |
| VV02-1LP-263 huNb_1_3 (Fc fusion) VHH: EVQLLESGGGLVQPGGSLRLSCAASGFTFSSSAMSWARQTPGKGFEWVSGIYSGGSTYYTESVKDRFTISRDNSKNTVYLQMNSLKPEDTAVYYCATWGTLRFGVWAEYDHWGQGTQVTVSS | – | – | – | – | 0.53 nM |
| IMMU130-263-1-3_1 (bispecific antibody, V domains shown) VH: EVQLVESGGGVVQPGRSLRLSCSASGFDFTTYWMSWVRQAPGKGLEWIGEIHPDSSTINYAPSLKDRFTISRDNAKNTLFLQMDSLRPEDTGVYFCASLYFGFPWFAYWGQGTPVTVSS VL: DIQLTQSPSSLSASVGDRVTITCKASQDVGTSVAWYQQKPGKAPKLLIYWTSTRHTGVPSRFSGSGSGTDFTFTISSLQPEDIATYYCQQYSLYRSFGQGTKVEIK VHH: EVQLVESGGGLVQPGGSLRLSCAASGFTFSSSAMSWARQAPGKGFEWVSGIYSGGSTYYTESVKDRFTISRDNSKNTVYLQMNSLKPEDTAVYYCATWGTLRFGVWAEYDHWGQGTQVTVSS | – | – | 7.34 nM | – | – |

Further lines, results first:

| EC50 (human 4-1BB [1]) | EC50 (human CEACAM5 on cells [2]) | EC50 (human CEACAM5 on cells [3]) | EC50 (human 4-1BB [4]) | EC50 (human 4-1BB [5]) | Binder |
| --- | --- | --- | --- | --- | --- |
| 0.37 nM | – | – | – | – | VV02-1SP (1)-73 huNb_1_3 (Fc fusion) VHH: EVDLVESGGGLVQPGGSLRLSCAVSGFTFSSSAMSWARQAPGKEFEWVSSIYSSGKTYYVESVKGRFTISRDNAKNTVYLQMSSLRPEDTAVYYCATWKTLRVGVWDESDYWGQGTLVTVSS |
| – | – | 7.75 nM | – | 1.2 nM | optimized bispecific antibody with 263 huNb-1-3_2 (bispecific antibody) heavy (part 1 of 2): EVQLVESGGGVVQPGRSLRLSCSASGFDFTTYWMSWVRQAPGKGLEWIGEIHPDSSTINYAPSLKDRFTISRDNAKNTLFLQMDSLRPEDTGVYFCASLYFGFPWFAYWGQGTPVTVSS heavy (part 2 of 2): GGGGSGGGGSGGGGSGGGGSEVQLVESGGGLVQPGGSLRLSCAASGFTFSSSAMSWARQAPGKGFEWVSGIYSGGSTYYTESVKDRFTISRDNAKNTVYLQMNSLKPEDTAVYYCATWGTLRFGVWAEYDHWGQGTLVTVSS light: DIQLTQSPSSLSASVGDRVTITCKASQDVGTSVAWYQQKPGKAPKLLIYWTSTRHTGVPSRFSGSGSGTDFTFTISSLQPEDIATYYCQQYSLYRSFGQGTKVEIK |

From patent US20250206834A1 (published 2025)
